Test results: the supplement of paper PMC9170038

System: K4 kissing-loop RNA reporter
Assay: apparent KD of K4 kissing-loop reporter; higher = weaker reporter binding
Conditions: Eterna round: R107
Procedure: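 RNA-MaP round R107: designed RNA switches with theophylline, tryptophan, arginine or FMN aptamers are transcribed on-chip within common flanks. They are titrated with a labelled K4 kissing-loop RNA reporter in RNA-MaP buffer (100 mM Tris pH 7.5, 80 mM KCl, 4 mM MgCl2), without ligand or with the indicated ligand. Median apparent KD per design.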

[1] = input ligand: theophylline 20 uM
[2] = input ligand: tryptophan 2.4 mM
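Note: bound reporter read as fluorescence of individual clusters on recovered sequencing chips by microscopy, with normalized cluster intensities fitted with a binding model.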

Sequence	apparent KD of K4 kissing-loop reporter (input ligand: FMN 200 uM)	apparent KD of K4 kissing-loop reporter (input ligand: arginine 13.2 mM)	apparent KD of K4 kissing-loop reporter (input ligand: none)	apparent KD of K4 kissing-loop reporter [1]	apparent KD of K4 kissing-loop reporter [2]
UGUGGUGUAUCCUUUAGGAGUGAUGUUUUUCGAGGACCGGUACGGCCGCCACUCGAGUGAUGAGAGCGUCGUUGUGGUGGUUUGU [#16 K4 Tryptophan A Exclusion]	1060 nM	698 nM	1190 nM	697 nM	730 nM
CGCAGUGAUGUUGCGAAUAUAAUCACGGAAGGAGCGCGUGAAAACGCAGGUAGGUCGCCGUGUGGUAUGAUGGAAACAUCGUACC [Arginine A K4 12]	222 nM	207 nM	243 nM	206 nM	191 nM
UGACUGGACUGAAGGAGCGUUGAAGGAGCGUAGUGAGUGAUGUUCACUACAGGUAGGUCGCAGCAGGUAGGUCGCAGUCUAGUCU [ArgBS 25 #DoubleAptamer #SwitchBubble]	149 nM	107 nM	101 nM	83 nM	145 nM
AGGUUUUACGGAGGAUAUGCACUGAGGAGGAGAAUAUAGUGAUGUUAUAUAAGAGGAAGGAGAAGAGUAGAAGGCCGUGAGGUUU [SSFMNB.M]	136 nM	130 nM	149 nM	204 nM	98.6 nM
UGGCGUUGAACCGCCGAAUCGCUGUGAGAAGGAGCGGUAAAAUUGCCAGGUAGGUCGCUCACAGCUUCACAGUGAUGUUGUGGAA [Enxeisen]	248 nM	161 nM	408 nM	212 nM	188 nM
GCGCGUCAUGUCGGCGGUGACUACGCCGAUACCAGCCGGGAAACCGGCCCUUGGCAGCGGCGCGCCGGAGUGAUGUUCCGACAGA [#2 Exclusion - Theophylline A Attempt #3 (HarryS)]	126 nM	205 nM	190 nM	359 nM	109 nM
AUAGGAGUGAUGUUCCUUAGUUUCUCCGAUACCAGUAUGGAAACAUACCCUUGGCAGCGGGAGACCGCUGAUUAGGAAACUAGUC [Theophylline A K4 8]	255 nM	242 nM	261 nM	251 nM	220 nM
UAAACCAAAUUACGUCACCUUGUCCAAUCUAAGGAUAUGUGAUUCCACAGAAGGUAGCCACGGGAGUGAUGUUCGCGUUAAGGCG [theeternabot_exclusion_KL_FMN_A_31]	475 nM	388 nM	465 nM	460 nM	419 nM
UGCGCUGUGUACUGAAAUGUUCUGCGGGAUACCAGAGUCUUUUUAUUCCCUUGGCAGCUUGAGUGAUGUUUGAUGCCGUUCUUGU [tffeymullin]	494 nM	279 nM	513 nM	521 nM	435 nM
AGUGCACUGGCAGGAUAUGUACAGUGAUGUUGUGUAUGUCAGCAAGUCAAAGACUUGCUCUUCUGUGCAGAAGGGCCUGUGUACA [#05 K4 FMN B Exclusion]	442 nM	526 nM	668 nM	532 nM	534 nM
GCGCGGGAGUGAUGUUCCAAGUGGUGUUAGCGAGGACCGGUACGGCCGCCACUCGUUACGGCCGGGCCGUAGGAUACACUGGCGC [Same State - Tryptophan A (Freestyle 17)]	308 nM	218 nM	286 nM	290 nM	240 nM
UAGUCGCUAGUUAGCGACAACGGGUCAGAUACCAGACUAGCGAUAGUCCCUUGGCAGCUGAAGUUCAGUGAUGUUGAACGGAUUA [Theo A SS t10]	192 nM	296 nM	265 nM	230 nM	207 nM
UGAUACCAGACGGCCGCCACUUCCGUAAGUCAAAGACUUGCCAAGGGAAUCGUCCAGUGAUGUUGGAGGACCGGGUCUGGUAUCU [FiskerMod 5 - Jieux - Exclusion - Tryptophan B]	677 nM	491 nM	725 nM	511 nM	550 nM
AUUUGUUUAUGUGAUACCAGACUUUGCAGUGAUGUUGCAUUUAUUUUAGAAUUUUAUUUAGUCCCUUGGCAGCACUAUGUAUUUA [JR_SSTheophyB_Sub007]	47 nM	90.4 nM	53.1 nM	92.5 nM	45.9 nM
UUUCGGUUCUGAGGAUAUUCGGACAAAUAUAGUGAUGUUGUAUAAGGAGGAGGGUGUUGGCAGUGCGGAGAAGGCAGAAGAGGAU [ExFMNB.U]	848 nM	737 nM	992 nM	556 nM	446 nM
UGUGGAGGAUAUGAUACCAGCAGUGAGAGAGAGGAAGUAUAGUGAUGUUAUAUGAGAGAAUGCCCUUGGCAGCGUAUGUAGUAGG [SSTheophylB.I]	270 nM	210 nM	218 nM	208 nM	191 nM
UAAUGCAUGACGGCCGCCACUAGUACUGGAGUGAUGUUGUGGUACGGCGGCAGUUUAGGGUGGACUAGGACCGGGUCAUGCAUAU [KL-XTryp-B10 #analogue]	461 nM	314 nM	339 nM	305 nM	356 nM
CCUAUCUCAUACGAUACCAGUCAAUUAAAUUUUAUAAAUGCCAUCACCGAGUGAUGUUCGGACCCUUGGCAGCGUAUGGGAUAGG [Ex Theophylline B K4 2]	222 nM	175 nM	198 nM	310 nM	187 nM
AGUGCACUGUCAGGAUAUAUACAGUGAUGUUGUGUAUGUCAGCAAGUCAAAGACUUGCUCUUCUGUGUAGAAGGGACUGUGUACA [Omei KL FMN B Exc A v4]	157 nM	118 nM	133 nM	117 nM	133 nM
ACGUUCGGAACGGCCGCCACUAUGGGCAGUGAUGUUGCCCAUAACCGGUUUUGCGUCAGAUCCCUUAGGACCGGGUUCUGGUAUA [Soonlesoso]	78.4 nM	68.6 nM	73.4 nM	65.8 nM	75.2 nM
UUGUGCAGCAAUCGAGUGAUGUUCGACGAUACCAGCCUCGAUAGAGGCCCUUGGCAGCGUAUCAUCACAUGCCAAGAGCUGCACU [#SwitchBubble 5]	530 nM	362 nM	428 nM	368 nM	419 nM

Sequence	apparent KD of K4 kissing-loop reporter (input ligand: FMN 200 uM)	apparent KD of K4 kissing-loop reporter (input ligand: arginine 13.2 mM)	apparent KD of K4 kissing-loop reporter (input ligand: none)	apparent KD of K4 kissing-loop reporter [1]	apparent KD of K4 kissing-loop reporter [2]
GAGAGCUCUGGAGGAUAUGAGUCUAGUGAUGUUAGGCGGUCCAUGCGCGUGGCGCGUUAUGCCCUUUUAGAAGGCCAGAGCUCUC [#2 Exclusion - FMN B Attempt #19 (HarryS)]	98.3 nM	69.3 nM	99.8 nM	113 nM	85 nM
GGUGGACUAGUCGAGUGAUGUUCGAGGCAUCGAGGACCGGUACGGCCGCCACUCGCAAAUCUACCGUGCGUUAACCACCAAAGUG [theeternabot_sameState_KL_Trp_A_37]	295 nM	152 nM	304 nM	317 nM	344 nM
CAGCAGAGUGAUGUUCUGCUUACUGCGGAUACCAGCUUUGCCAGAGGCCCUUGGCAGCCGCACGGCUCAGUGAUGUUGGGUCACG [Same State Theophylline A GF 13]	296 nM	293 nM	361 nM	323 nM	301 nM
UCCUGCAAUCGGCCACGAAAGUGGAUUGAUACCAGAGUCGAAAGACUCCCUUGGCAGCGAGUGAUGUUCGAAGCAGGUAAAUAAA	464 nM	380 nM	502 nM	514 nM	432 nM
UGUACCGAGUUAGGAUAUGUCGUCGAAAGACGAAAUGGAGUGAUGUUCCUUAAACUGCGAAAGCAGACAGAAGGGACUUGGUACU [FmnBS 29 U11]	233 nM	473 nM	474 nM	493 nM	429 nM
GGGUGGCAGACGGCCGCCACUCUUAGCAGCCAGUGAGUGAUGUUCGUGGCGGAGUGAUGUUCCUAGAGGACCGGGUUUGUUGUUC [Same State Tryptophan B GF 20]	413 nM	259 nM	478 nM	412 nM	318 nM
CGCGCGCGCGCGCGCGCGCGCGCGAAUGAUACCAGUAUAUAAGAAUACCCUUGGCAGCAUAAGAAAGAUAUAGUGAUGUUGUAUA [SSTheophA.B]	285 nM	150 nM	269 nM	422 nM	231 nM
CGCGUGGGUUUGAGAGGGUUUGCGCGAAGUGAGGAUAUUUAGGGAGAAAGAAGGCACUAUAAAAUAUAGUGAUGUUAUAUAAGGG [SSFMNA.J]	877 nM	186 nM	170 nM	242 nM	126 nM
UAAGAGGACCACUGCAAGAGUCCUCGAAUACGAGGACCGGUACGGCCGCCACUCGAUAACUUGCAGUGAUGUUGCAAGUAAGAAU [(T)''-(K)'-(T)'-(T1)-(T2)-(K1)-(K2)_Design1]	124 nM	129 nM	119 nM	144 nM	84.4 nM
GAGAUAGAGGCGGCCGCCACUAGUGAUGUUGGUGAUGUUAGAUAGAGAAUAGAACGGGUACUCCCUAGGACCGGGCCAGAUGGAG [#04 K4 Tryptophan B Exclusion]	63.8 nM	34.9 nM	58.5 nM	49.4 nM	53 nM
GCGCGUCAUGUCAGCGGUGACUACGUCGAUACCAGCAGGGAAACCUGCCCUUGGCAGCGACGCGCUGGAGUGAUGUUCCGACGGA [#2 Exclusion - Theophylline A Attempt #6 (HarryS)]	434 nM	431 nM	544 nM	854 nM	442 nM
CAUACGCAUGGAGGAUAUGAGAUUACUCAUAUCAUUUAAUAUUCUCAGUGAUGUUGAGAUUUAGGCUCAGAAGGCCAUGUGUAUG [Ex FMN B 14]	271 nM	362 nM	412 nM	421 nM	375 nM
AGGGCUGAGAGCGAUACCAGCGGAUACUAUAUGGUCCAAUAGAGUGAUGUUUUAUAAAGCCGCCCUUGGCAGCGCAAUCUAUUAG [XTheo-B4]	1330 nM	423 nM	501 nM	982 nM	453 nM
AGGAGCGUGGGAUGGAAAUCGCACGCUCCUCGAGGACCGGUACGGCCGCCACUCGCUCGCGCCGAGUGAUGUUCGGCCGGCGAAC [#2 Same State - Tryptophan A Attempt #11 (HarryS)]	131 nM	111 nM	451 nM	178 nM	482 nM
UGCACGGGCUCGGCCGCCACUCCCGCGGGUCGGAAGGUCCGCUACUGAGUGAUGUUCGGUUGGAGGAGGACCGGGAGCCCGUGCA [#2 Exclusion - Tryptophan B Attempt #26 (HarryS)]	135 nM	109 nM	104 nM	104 nM	88.5 nM
GAUUUAGAGGCGGCCGCCACUAGUGAUGUUAGUGAUGUUUGAUACGGAAUAUAUCUGCGAGUAGAUAGGACCGGGCCAGAUGGAG [rttrbmullin]	207 nM	150 nM	170 nM	184 nM	181 nM
AGCUCAGAGUGACUCGAUAAGAGUCACAAACGAGGACCGGUACGGCCGCCACUCGAAAUAACGAGAGUGAUGUUCUCGCUGAGCA [#SwitchBubble 1 #StaticStem #K4Late]	1160 nM	517 nM	1000 nM	285 nM	340 nM
UUUAUAUAGUCGGCCGCCACUGAUUUUUAUAUAUGUUUAUGUUUAUACGAGUGAUGUUCGUUAUUCAGGACCGGGACUUUUGUUA [JR_SSTryptoB_Sub016]	108 nM	133 nM	109 nM	117 nM	102 nM
GCUAUGGUAGGAAGGAGCGCUUAUUUAUUUUUAAGAGUGAUGUUCGUUAGUAGAUAGUUAAAGCAGGUAGGUCGCCUACUAUAGC [Arginine B K4 15]	146 nM	177 nM	171 nM	161 nM	100 nM
GGUUCGAGUGAUGUUCGGGUCGAUUGGGAAGGAGCGCCCGGAAGGGCAGGUAGGUCGCCCGGGCCGCGCGGGAAACCGCGCGUCC [#2 Same State - Arginine A Attempt #7 (HarryS)]	216 nM	121 nM	175 nM	147 nM	144 nM
UCGGACCCUGGAGGAUAUGAGUCUAGUGAUGUUAGGCGGUCCAUGCGCGUGGCGCGUUAUGCCCUUUUAGAAGGCCAGGGUCCGA [#2 Exclusion - FMN B Attempt #15 (HarryS)]	113 nM	72.4 nM	104 nM	90.7 nM	84.6 nM
